According to the DeepSol protein solubility set:

Assay: soluble on expression in E. coli; label from the status in PepcDB or PDB records

Sequence	soluble on expression in E. coli
QGHVGDHDSHEVMQRLDALLPTLRERAQETEDLRRIPDDSMKALQETGFFRLLQPEQWGGYQADPVLFYSAVRKIASACGSTGWVSSIIGVHNWHLALFSQQAQEDVWGNDTDVRISSSYAPMGAGQVVDGGYTVNGAWAWSSGCDHASWAVLGGPVIKDGRPVDFVSFLIPREDYRIDDVWNVVGLRGTGSNTVVVEDVFVPTHRVLSFKAMSNLTAPGLERNTAPVYKMPWGTIHPTTISAPIVGMAYGAYDAHVEHQGKRVRAAFAGEKAKDDPFAKVRIAEASSDIDAAWRQLSGNVADEYALLVAGEEVPFELRLRARRDQVRATGRAISSIDKLFESSGATALANGTPLQRFWRDAHAGRVHAANDPERAYVMYGTGEFGLPITDTMV	soluble
MKRRLLCALLASTLAQPLTVRADLPDLGEISDASLSLSDEARIGRDALRAMREAGDVVDDPEVNAYLNDVGGRLAAAAAVPGVRFTYFCVADAGINAFAMPGGYVGINIGLMLASQSEGELAAVLGHETAHVAQRHIARMQAANSAASPLLLLGTIVAAALAAKAGSGDGAMGAVSAGMGLSISRQLAFSRDFEREADRVGMQYMSAAGFDVRNMAAFFQRLEQASRYSDNTAYAFLRTHPVTLERISEAQNRALDYPVRMRADSVDYLLVREKLRVLTLSPEEAVSHYSSALQRGLYLNEGANWYGLARAKLLQHDRAGASEALAKARAKLPDNPMLYGLEVEIARDGRDWAAAARAARNGLSAFPRSVSLQLAQLDVALDGGDRKAAQAQLRQLLDSRRDDPALYRREAKLYADKDPLRYHAALGNAFYYEQRYGAALEQYQLAGKAKGDDFYLRSMLEARLREVEKLAKEERKAARNLEHHHHHH	soluble
MAHHHHHHMCAYASILVVSAVHLCFCYRSHTSQSMTPAKALRLSSLPLATAWWRQHGLADRLEGFRACRQPTPRQRPLQRTADGGVSLGWAGLLAGAEQSRTSSITTATDRPPDLPLVLVSACLLSYPVTYRGTHTNLPASLRPTPLLFLTEVLFKELGLVQCVPVCPEVQWLGLPVPRVPLRLVRGSRGTDDARQRGSGWAAAQHSSSATLPSLSMSASDSVAIKGEREARYLVESSAEDHVLLRCDAPNDTFAEQSPSPQLHSAFLAQLVQDLKAVDGIILKSYSPSCGVRDARLYEEAVTSPPSSPCDQHACNACERAGKPTSASFIGRRPAASASAQRRFDLVDGFFTQQLRDFLTSMHGVGGERRADARCHSEAAAPVITCDRLLTDFYTEERLRRSPLAGKVKKRHVAGNASEAAPHLTSLDSFMESVLQHRDWRVSQHRC	not soluble
MRPPRPPRPPSPQRSAELRRRFAQEARSERPDLATLCLLVGAEADGTLDEAGLDAAQVELDRLAGELPFRPGTPRAWAVALRDLLGERYGFHGVAADYQRLESSLLHEVVRRRRGLPILLSVVWLEVARRAGAPVYGVALPGHFVVGFGGESAAASGPGSAPLGERVLVDPYDGGRLLSGTDAEALVAGATGAELRASMLEPAAPLDVVARVLNNIRAWAAARPEQSAVGLWAVELALLLPAHAARLRYERAVLLVQRGEFAAGAGELEAYAEVVEAVDEAVAEEVRGEARTARAMLN	not soluble
MHHHHHHSSGVDLGTENLYFQSMADSEALPSLAGDPVAVEALLRAVFGVVVDEAIQKGTSVSQKVCEWKEPEELKQLLDLELRSQGESQKQILERCRAVIRYSVKTGHPRFFNQLFSGLDPHALAGRIITESLNTSQYTYEIAPVFVLMEEEVLRKLRALVGWSSGDGIFCPGGSISNMYAVNLARYQRYPDCKQRGLRTLPPLALFTSKECHYSIQKGAAFLGLGTDSVRVVKADERGKMVPEDLERQIGMAEAEGAVPFLVSATSGTTVLGAFDPLEAIADVCQRHGLWLHVDAAWGGSVLLSQTHRHLLDGIQRADSVAWNPHKLLAAGLQCSALLLQDTSNLLKRCHGSQASYLFQQDKFYDVALDTGDKVVQCGRRVDCLKLWLMWKAQGDQGLERRIDQAFVLARYLVEEMKKREGFELVMEPEFVNVCFWFVPPSLRGKQESPDYHERLSKVAPVLKERMVKEGSMMIGYQPHGTRGNFFRVVVANSALTCADMDFLLNELERLGQDL	soluble
MEKKKVTIPQVCHGHSRPVVDLFYSPITPDGFFLISASKDSHPMLRNGETGDWIGTFEGHKGAVWSSCLDNNALRAASASADFSAKLWDALTGDVLHSFEHKHIVRACAFSEDTKSLLTGGFEKILRVFDMNRLDAPPTEVDKSPGSIRTLTWLHSDQTILSSCTDIGGVRLWDVRSGKIVQTLETKSPVTSAEVSQDGRYITTADGSTVKFWDANHFGLVKSYDMPCNIESASLEPKSGEKFVAGGEDMWVRVFDFYTGEEIGCNKGHHGPVHCVRFTPTGLSYASGSEDGTIRIWQTTPANPEENETSSRRVKHSVDEVSKKIEGFHINKEGKTAEKPSDT	soluble
TPHLVNLNEDPLMSECLLYYIKDGITRVGQADAERRQDIVLSGAHIKEEHCIFRSERSNSGEVIVTLEPCERSETYVNGKRVSQPVQLRSGNRIIMGKNHVFRFNHPEQARAEREKT	soluble
MAVPSGVHRCFFRGQSVSLEKLLSIFASEVCEQVVFIGENHEHSVAQQLELRILEALWLSSQRQNRQLLLSLEFLDRSQQHVLNEAMLRDEIESVVPEPYVPLVRFARTNNLAVLAANAPRSITSRVAKQGQQAVMETLSPKERAWCAPTPWPAPSNAYSEAFQAIMQQVMRPDPSSAQAQQERMQRMLQAQSLWDATMAFSIAEALERYPKAQVLHVTGFFHVANRLGTVEMLAHYRNTVNALVSIVYPEELQHSTSALDGDVVIYAP	not soluble
GPLHMKAVVPGPAEHPLQYNYTFWYSRRTPGRPTSSQSYEQNIKQIGTFASVEQFWRFYSHMVRPGDLTGHSDFHLFKEGIKPMWEDDANKNGGKWIIRLRKGLASRCWENLILAMLGEQFMVGEEICGAVVSVRFQEDIISIWNKTASDQATTARIRDTLRRVLNLPPNTIMEYKTHTDSIKMPGRLGPQRLLF	soluble
SNAMNILIIGNGGREHALGWKAAQSPLADKIYVAPGNAGTALEPTLENVDIAATDIAGLLAFAQSHDIGLTIVGPEAPLVIGVVDAFRAAGLAIFGPTQAAAQLEGSKAFTKDFLARHNIPSAEYQNFTDVEAALAYVRQKGAPIVIKADGLAAGKGVIVAMTQEEAETAVNDMLAGNAFGDAGHRIVVEEFLDGEEASFIVMVDGENVLPMATSQDHKRVGDGDTGPNTGGMGAYSPAPVVTDDVHQRVMDQVIWPTVRGMAAEGNIYTGFLYAGLMISADGQPKVIEFNCRFGDPETQPIMLRMRSDLVELCLAGTQGKLNEKTSDWDERPSLGVVLAAGGYPADYRQGDVIHGLPQQEVKDGKVFHAGTKLNGNHEVVTNGGRVLCVTALGETVAQAQQYAYQLAEGIQWEGVFCRKDIGYRAIARGK	soluble
MDFKYDVIVIGAGHAGCEAAAAAANLGSKTCLITMDMNKIGQMSCNPAVGGIAKGQIVREIDALGGQMGLVTDETAIQFRILNRSKGPAMWSPRAQCDRAKFIWSWREKLENTPNLHIWQDTVCELLVENGEVVGLVTLWGVTFKAKCIVLTAGTFLNGLMHVGRHQLPGGRMAEPASYQLTESIARHGIAYGRMKTGTPVRIDARSIHFDLMDTQDGECDFHKFSFMNTSTRHLKQLQCWTCYTNEEVHRILREGLPDSPLFNGQIQSIGPRYCPSIETKIVTFPDKEQHQLFLEPEGETTQELYLNGFSSSLPMDIQIAALKKVPAFKDIVIYRPGYAIEYDYFDPTQLKHSLESKIIKNLFFAGQVNGTTGYEEAGGQGLIAGINAHINCHGGEAFTLARDEAYIGVLIDDLVTKGVDEPYRMFTSRAEYRILLRMDDADMRLTERAYHLGLAREDRYQLMKTKKEALEQIVNFAKNYSMKPALINDALEKLGTTPLRQGCKLIEILNRPQITIENIAEHVPAFQRELEKATAADSDRKEEILEAAEILIKYQGYIDRERMIAEKLARLESIKIKGKFDYASIQSLSTEARQKLVKIDPETIAQASRIPGVSPSDINVLLVLSGR	not soluble
MAHHHHHHMSITAGTLPPVKGTSVKKSPRKGRPADSMGNGTGAAADPHCYHKCRCYGHDDTLPNYKLLTIPRTNNYYAATGGCPCVPRVAAHPGSWRLKEGQLRSSTYRCGTGCIKKSAALTLGCCHHSGDQYGWRRGPHTVLDKNTAATGKCDTFGNLAFKSTSRAYCAVGGDDLSDVSSASPQKLEDLEALILEEHQQRMRVEEDVDELAGIQRNGTADWYKKIHHDAERRRLLAQISEVELQDLLRDVKNIVDRPLNQTNMDLLRRILHRQEHLQRQREYYAAQELE	not soluble
MSLKITRITVYQIALPLEHPYWLSGGRLKFEVLDATLVKIETGTGLTGWGEGTPWGHTYVPAHGPGIRAGIETMAPFIIGLDPRRGLEIERAMDLALPGHLYAKSPIDMACWDIAGQAAGLSIADLMGGGSRTPRPIASSVGAKTVEETRAVIERYRQRGYVAHSVKIGGDIERDIARVRDVESLRRDGEIVLYDVNRGWTRQQALRVMSATEDLNVMFEQPCESLDDIAAIAGKYAAPVSVDESLVTLQDAARIARDGLAEVFGIKLNRVGGLTKAARMRDIALAHGIDMFVMATGGSVLADAEALHLAATIPDANCHAVWACQDMITLDIAGGRGPRNIDGHLHLTEAPGLGVHPDEDVLGDPVGVYGEGHHHHHH	not soluble
MLKKRKLGRRIGEIQAGEKLVFQAAIEDKDLLLYLGLTDDANPLYIQHDYASQTPFGKPVVPPVMLTGMITSAVSKYLPGPGSYITRQDLRFLRPVYHYETLEFLLEVADVDEAGHCVTLSVMATRGAETVLDGTLSVCPPHTLPRLDGRVLENF	not soluble
MGSDKIHHHHHHADLQSNFLKMLVTQMNNQDPLNPMDNAQLTSQLAQISTVSSMQTMNSTLTQLLNQTSASRAMDSAALIGRTVMVPGSQFSVKDGVAGQFGVDLPSTADAVTVNVLDAHGNVVRTIDMKGQTAGVHDIAWDGKNDAGVAVADGDYSFKVSATANGTSVQPVALVYGKVNSISGDSSGVLVDVGNGQQANVDDVRRIL	not soluble
MFTPIDQAIEHFKQNKFVIVMDDAGRENEGDLICAAENVSTEQMAFLVRHSSGYVCAPMTNAIADKLDLPLLRTGMKFESNDDDRHGTAYTITVDVAQGTTTGISAHDRSMTCRALADSSSTPKSFLKPGHICPLRAADGGVLQRRGHTEAGVDLCKLSGLSPVAVIGELVNDDEQGTMMRLNDCQAFGKKHGIPLISIEELAQYLKK	soluble
MGSDKIHHHHHHMKTLVICSGGLDSVSLAHKVAAEHDLIGLISFDYGQRHRKELDFAARAATRLGVPHDLIDMRQIGAHLSGSALTDDVDVPDGHYAEDTMKITVVPNRNAIMLAIAFGIAAAKQADAVATAVHGGDHFIYPDCRPGFTQAFEAMQAQALDGYASVRLYTPFVHEPKSAIVTEGERHNTPFADTWSCYKGGEVHCGRCGTCVERREAFHLAGVADPTPYADPEFWRAAVEGR	not soluble
MGSDKIHHHHHHMLDSYIKRIVIHQFSPNDTELLLSDRLVSITPRIDEYFRKKLAKVFSDEAKRGQFEANNTFFTTIGDDLLETSVTIAQLWKEAFVISEDQKTNDLVFVQFDKDGEPFFAFLRIALKEQFAHLSDNYEHPFTVTQNNLPSPTQTPDEALVINLKSGQYYLIEKRVKHNGSFANYFSEHLLKVTPEQSVKKSIKMIEQTAQKIAEHFNQDDFTFQSKMKSTLFKQLEADDVLSPEKLADQLFDDNLTARLTFVDQVKDVIPEPIKISDIEHSRQIKKLENQKLSLSNGIELTVPNAIYQDAEAVEFLLNDDGTYSILIKNIEDIKTK	not soluble
MSLTTMKEIAEQTGVSISTVSLVLNGRDEGRVNPALAKLVRNKATELGYKINPLARSLRTNKTRILGFISEEVATTPYAGGIILGAQDAASAYGYMLFTVSTDGKASEENEIATLKRYGVDGFFYSKMSNRIAHVPESLSDYPVVMVDATDYENKVPSVEPDEFMIGYDATIRLLQADCKRIAYVGCAENMIAQDGRLAGYCTALQEAGRAFNPSLVCNVMNDGPALRAVNKLFDDEHPDGFFCFNDARAWYVYECAARRGLTVGKDISVVGVDNHRVFAETLEPQLTTVELPHYEMGYWSACKLISMIEGKDVDTSSCPSARASLPPLDAPIPAKIHCALLEKDSVISEGHHHHHH	soluble
